What was measured:
[1] = molecular target: T1, cytochrome CYP11A1 (P450scc) (bovine, UniProt P00189 40-520); assay: SPR; Biacore 3000; about 400 RU Ad coupled by EDC/NHS to a CM5 chip; oligomeric (non-monomerized) CYP11A1 injected at 1-100 nM; 50 mM potassium phosphate pH 7.4 with 1% Emulgen 913; 1:1 Langmuir model; conditions: both partners purified
T1 construct: The same protein was used either untreated (oligomeric, non-monomerized) or after incubation with 4-12% Emulgen 913 (monomerized); the assays tell the two states apart; also called CYP11A1mon; monomerized CYP11A1; source: isolated from bovine adrenal glands
T1 sequence (looked up): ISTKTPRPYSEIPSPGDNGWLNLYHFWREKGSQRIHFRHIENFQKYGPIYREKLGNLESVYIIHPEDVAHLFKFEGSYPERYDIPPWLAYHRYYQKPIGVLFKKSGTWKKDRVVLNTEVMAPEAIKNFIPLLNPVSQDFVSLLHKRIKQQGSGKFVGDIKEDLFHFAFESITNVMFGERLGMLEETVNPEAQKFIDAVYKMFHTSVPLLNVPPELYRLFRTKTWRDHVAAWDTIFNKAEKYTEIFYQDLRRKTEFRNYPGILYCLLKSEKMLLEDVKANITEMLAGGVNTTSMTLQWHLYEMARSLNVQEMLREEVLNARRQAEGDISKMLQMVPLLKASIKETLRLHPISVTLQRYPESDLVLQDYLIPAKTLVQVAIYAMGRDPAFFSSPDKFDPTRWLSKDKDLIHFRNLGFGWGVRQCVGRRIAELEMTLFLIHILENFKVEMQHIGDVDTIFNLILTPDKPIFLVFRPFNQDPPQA

[2] = molecular target: T1, cytochrome CYP11A1 (P450scc); assay: SPR; Biacore 3000; about 400 RU Ad coupled by EDC/NHS to a CM5 chip; monomeric (Emulgen 913-monomerized) CYP11A1 injected at 1-100 nM; 50 mM potassium phosphate pH 7.4 with 1% Emulgen 913; 1:1 Langmuir model; conditions: both partners purified

B1: adrenodoxin (natural protein, UniProt P00257 59-186, looked up)
chain: SSSEDKITVHFINRDGETLTTKGKIGDSLLDVVVQNNLDIDGFGACEGTLACSTCHLIFEQHIFEKLEAITDEENDMLDLAYGLTDRSRLGCQICLTKAMDNMTVRVPDAVSDARESIDMGMNSSKIE
notes: adrenodoxin (Ad), recombinant; source: E. coli BL21DE3, purified after sonification
- Kd [1]: 210 ± 20 nM
- koff [1]: 0.09 ± 0.009 s⁻¹
- kon [1]: 420000 M⁻¹ s⁻¹
- Kd [2]: 170 ± 15 nM
- koff [2]: 0.05 ± 0.005 s⁻¹
- kon [2]: 290000 M⁻¹ s⁻¹
